Reference: CN111378040A (UNIV SHENZHEN, dated 2020)

Key:
[1] = molecular target: T1, 内源性的ROR2 (293T细胞) (UniProt Q01974 34-943); experiment: immunoprecipitation from 293T cell lysate, blot with Santa Cruz ROR2 antibody sc-374174
T1 construct: Whole endogenous protein in cell lysate, used for immunoprecipitation; also called endogenous ROR2 protein of ROR2-positive 293T cells

[2] = molecular target: T2, 带有His标签的人源的ROR2胞外端 (human, UniProt Q01974 34-403); experiment: immunoblot, lysate of 293T-ROR2-KO cells transfected with His-tagged human ROR2ex, 5ug/ml
T2 construct: extracellular domain; Denatured cell lysate in an immunoblot; it is put last only for want of a statement; also called human ROR2ex; humanROR2ex; not shown: His tag
T2 sequence (Q01974 34-403): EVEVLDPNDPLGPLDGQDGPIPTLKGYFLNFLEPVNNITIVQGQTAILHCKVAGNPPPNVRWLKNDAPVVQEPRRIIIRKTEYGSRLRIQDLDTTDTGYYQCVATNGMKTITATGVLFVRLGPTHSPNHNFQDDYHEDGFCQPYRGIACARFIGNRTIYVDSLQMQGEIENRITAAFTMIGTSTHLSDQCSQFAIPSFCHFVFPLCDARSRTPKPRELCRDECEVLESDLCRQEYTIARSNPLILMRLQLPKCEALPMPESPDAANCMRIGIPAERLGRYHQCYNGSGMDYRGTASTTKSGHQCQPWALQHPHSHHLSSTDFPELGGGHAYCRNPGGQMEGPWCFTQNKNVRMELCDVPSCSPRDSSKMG

[3] = molecular target: T3, ROR2膜蛋白 (UniProt Q01974 34-943, limits assumed); experiment: flow cytometry on T47D cells (ROR2 positive) against 231 cells (ROR2 negative), 10ug/ml
T3 construct: whole, on cells; Endogenous ROR2 of T47D cells and of cells from human patients; also called ROR2 on T47D cells; ROR2 on patient blood cancer cells and lymphoma PDX tumour cells
T3 sequence (Q01974 34-943 limits assumed): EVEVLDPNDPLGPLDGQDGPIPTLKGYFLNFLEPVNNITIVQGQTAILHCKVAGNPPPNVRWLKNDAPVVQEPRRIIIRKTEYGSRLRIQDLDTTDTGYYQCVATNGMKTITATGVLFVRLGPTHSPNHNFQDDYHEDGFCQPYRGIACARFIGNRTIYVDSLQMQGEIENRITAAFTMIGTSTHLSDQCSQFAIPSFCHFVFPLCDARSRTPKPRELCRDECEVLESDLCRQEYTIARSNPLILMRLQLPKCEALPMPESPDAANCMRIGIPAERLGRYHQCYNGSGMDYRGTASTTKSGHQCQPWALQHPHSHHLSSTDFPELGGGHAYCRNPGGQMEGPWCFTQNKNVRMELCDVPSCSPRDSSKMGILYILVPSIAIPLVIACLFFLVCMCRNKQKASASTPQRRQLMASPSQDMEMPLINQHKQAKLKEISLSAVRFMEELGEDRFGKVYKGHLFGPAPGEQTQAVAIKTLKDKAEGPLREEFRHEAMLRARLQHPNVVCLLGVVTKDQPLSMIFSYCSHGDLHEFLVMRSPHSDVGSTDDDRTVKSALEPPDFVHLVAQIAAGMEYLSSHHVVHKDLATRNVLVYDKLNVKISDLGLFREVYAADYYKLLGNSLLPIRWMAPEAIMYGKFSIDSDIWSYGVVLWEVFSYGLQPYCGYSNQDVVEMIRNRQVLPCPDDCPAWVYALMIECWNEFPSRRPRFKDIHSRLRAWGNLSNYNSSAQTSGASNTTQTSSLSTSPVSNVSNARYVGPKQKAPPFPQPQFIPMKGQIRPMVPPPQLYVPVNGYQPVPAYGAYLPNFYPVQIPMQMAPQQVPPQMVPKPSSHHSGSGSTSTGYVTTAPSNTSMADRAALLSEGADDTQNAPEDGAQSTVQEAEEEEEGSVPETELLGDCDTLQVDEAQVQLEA

Measured: binding result

T1 sequence (Q01974 34-943 limits assumed): as above

B1: B22嵌合抗体 (antibody, human IgG1, kappa, V domains shown)
VH: QVQLQQPGAALVKPGASVKLSCKASGYTFTNYWIQWMKQRPGQGLEWIGEINPSNGRTDYNEKFKNRATLTVDNSSTTAYMQLSSLTSEDSAVYYCANYRPGYWGQGTSVTVSS
VL: DIVMTQSQKFMSTSVGDRVSVTCKASQNVGTNVAWFQQKPGQSPKPLIYLASYRYSGVPDRFTGSGSGTDFTLTISNVQSEDLAEYFCQQYNSYPLTFGGGTNLEIKR
notes: Chimeric antibody expressed in 293F cells and purified on Protein A; also called B22抗体; SA120-2
binds: [1] | [2] | [3]

B2: A12嵌合抗体 (antibody, human IgG1, kappa, V domains shown)
VH: QVQLQQSGPELVKPGASVRMSCKAAGYTITSYLMHWVKQRPGQDLEWIGYINPYNDGTKYNEKFKDKATLTSDKSSSTAYMELSSLTSEDSAVYYCARSDVYYGVRFAYWGQGTLVTVSA
VL: DIVLTQSPAIMSASPGEKVTMTCSASSSVSYMHWYQQKSGTSPKRWIYDTSKLASGVPARFSGSGSGTSYSLTISSMEAEDAAIYYCQQWSSNPPTFGAGTKLELKR
notes: Chimeric antibody expressed in 293F cells and purified on Protein A; also called A12抗体; ROR2-A12
binds: [1] | [2] | [3]

B3: B30嵌合抗体 (antibody, human IgG1, kappa, V domains shown)
VH: QVQLQQSGPELVKPGASVRMSCKAAGYTFTSYLIHWVKQRPGQDLEWIGYINPYNDGTKYNEKFKDKATLTSDKSSSTAYMELSSLTSEDSAVYYCARSDVYYGVRFAYWGQGTLVTVSA
VL: DIVLTQSPVIMSASPGEKVTMTCSASSSISYMYWYQQKPGSSPRLLIYDTSILASGVPVRFSGSGSGTSYSLTISRMEAEDAATYYCQQWSSYPFTFGSGTKLEIKR
notes: Chimeric antibody expressed in 293F cells and purified on Protein A; also called B30抗体; ROR2-B30
binds: [1] | [2] | [3]
